{"source": "paper PMC10613257", "about": "“Cryo-EM structure of human PAPP-A2 and mechanism of substrate recognition” (Communications Chemistry, 2023)", "biological_target": "the molecule itself", "experiment": "SEC; Superose 6 Increase 10/300 in 1X PBS"}
{"protein": "Pregnancy-Associated Plasma Protein A (PAPP-A), wild type (enzyme, UniProt Q13219 82-1627, looked up, PAPP-A, mature form of 1547 amino acids after processing of the pro-peptide. numbers count on: the mature protein; also called FL PAPP-A; dimeric PAPP-A; source: Expi293F, secreted into the culture medium, purified (anti-FLAG, Superose 6 SEC)) EARGATEEPSPPSRALYFSGRGEQLRLRADLELPRDAFTLQVWLRAEGGQRSPAVITGLYDKCSYISRDRGWVVGIHTISDQDNKDPRYFFSLKTDRARQVTTINAHRSYLPGQWVYLAATYDGQFMKLYVNGAQVATSGEQVGGIFSPLTQKCKVLMLGGSALNHNYRGYIEHFSLWKVARTQREILSDMETHGAHTALPQLLLQENWDNVKHAWSPMKDGSSPKVEFSNAHGFLLDTSLEPPLCGQTLCDNTEVIASYNQLSSFRQPKVVRYRVVNLYEDDHKNPTVTREQVDFQHHQLAEAFKQYNISWELDVLEVSNSSLRRRLILANCDISKIGDENCDPECNHTLTGHDGGDCRHLRHPAFVKKQHNGVCDMDCNYERFNFDGGECCDPEITNVTQTCFDPDSPHRAYLDVNELKNILKLDGSTHLNIFFAKSSEEELAGVATWPWDKEALMHLGGIVLNPSFYGMPGHTHTMIHEIGHSLGLYHVFRGISEIQSCSDPCMETEPSFETGDLCNDTNPAPKHKSCGDPGPGNDTCGFHSFFNTPYNNFMSYADDDCTDSFTPNQVARMHCYLDLVYQGWQPSRKPAPVALAPQVLGHTTDSVTLEWFPPIDGHFFERELGSACHLCLEGRILVQYASNASSPMPCSPSGHWSPREAEGHPDVEQPCKSSVRTWSPNSAVNPHTVPPACPEPQGCYLELEFLYPLVPESLTIWVTFVSTDWDSSGAVNDIKLLAVSGKNISLGPQNVFCDVPLTIRLWDVGEEVYGIQIYTLDEHLEIDAAMLTSTADTPLCLQCKPLKYKVVRDPPLQMDVASILHLNRKFVDMDLNLGSVYQYWVITISGTEESEPSPAVTYIHGSGYCGDGIIQKDQGEQCDDMNKINGDGCSLFCRQEVSFNCIDEPSRCYFHDGDGVCEEFEQKTSIKDCGVYTPQGFLDQWASNASVSHQDQQCPGWVIIGQPAASQVCRTKVIDLSEGISQHAWYPCTISYPYSQLAQTTFWLRAYFSQPMVAAAVIVHLVTDGTYYGDQKQETISVQLLDTKDQSHDLGLHVLSCRNNPLIIPVVHDLSQPFYHSQAVRVSFSSPLVAISGVALRSFDNFDPVTLSSCQRGETYSPAEQSCVHFACEKTDCPELAVENASLNCSSSDRYHGAQCTVSCRTGYVLQIRRDDELIKSQTGPSVTVTCTEGKWNKQVACEPVDCSIPDHHQVYAASFSCPEGTTFGSQCSFQCRHPAQLKGNNSLLTCMEDGLWSFPEALCELMCLAPPPVPNADLQTARCRENKHKVGSFCKYKCKPGYHVPGSSRKSKKRAFKTQCTQDGSWQEGACVPVTCDPPPPKFHGLYQCTNGFQFNSECRIKCEDSDASQGLGSNVIHCRKDGTWNGSFHVCQEMQGQCSVPNELNSNLKLQCPDGYAIGSECATSCLDHNSESIILPMNVTVRDIPHWLNPTRVERVVCTAGLKWYPHPALIHCVKGCEPFMGDNYCDAINNRAFCNYDGGDCCTSTVKTKKVTPFPMSCDLQGDCACRDPQAQEHSRKDLRGYSHG", "values": [{"measurement": "stoichiometry N", "value": 2}]}
